In patent US8877192B2, “Rage fusion proteins and methods of use” (TransTech Pharma, LLC, priority 2004, dated 2014):

Columns and labels:
Fc receptor = Fc receptor activation: TNF-α secretion from THP-1 cells; type: cell-based; conditions: wells precoated with 10 ug/well heat aggregated protein, 24 hours, FIG. 12
Description: Fc stimulation results in TNF-α secretion.

[1] = tested on: transgenic mice expressing the human Swedish mutant amyloid precursor protein (APP); assay: Mouse model of AD (APP transgenic mice); type: in vivo
Procedure: Experiments were performed to evaluate whether TTP-4000 could affect amyloid formation and cognitive dysfunction in a mouse model of AD. The experiments utilized transgenic mice expressing the human Swedish mutant amyloid precursor protein (APP) under the control of the PDGF-B chain promoter. Over time, these mice generate high levels of the RAGE ligand, amyloid beta (Aβ).
The APP mice (male) used in this experiment were designed by microinjection of the human APP gene (with the Swedish and London mutations) into mouse eggs under the control of the platelet-derived growth factor B (PDGF-B) chain gene promoter. The mice were generated on a C57BL/6 background and were developed by Molecular Therapeutics Inc. Animals were fed ad libitum and maintained by brother sister mating. The mice generated from this construct develop amyloid deposits starting at 6 months of age. Animals were aged for 6 months and then maintained for 90 days and sacrificed for amyloid quantification.
APP transgenic mice were administered vehicle or TTP4000 every other day [qod (i.p.)] for 90 days starting at 6 months of age. At the end of the experiment, animals were sacrificed and examined for Aβ plaque burden in the brain (i.e., plaque number). A 6-month control APP group was used to determine the baseline of amyloid deposits. In addition, at the end of the study, the animals were subjected to behavioral (Morris water maze) analysis. The investigators were blinded to the study compounds. Samples were given to the mice at 0.25 ml/mouse/every other day.
For histological examination, the animals were anesthetized with an intraperitoneal injection (IP) of sodium pentobarbital (50 mg/kg). The animals were transcardially perfused with 4° C., phosphate-buffered saline (PBS) followed by 4% paraformaldehyde. The brains were removed and placed in 4% paraformaldehyde over night. The brains were processed to paraffin and embedded. Ten serial 30-μm thick sections through the brain were obtained. Sections were subjected to primary antibody overnight at 4° C. (Aβ peptide antibody) in order to detect the amyloid deposits in the brain of the transgenic animals (Guo et al., J. Neurosci., 22:5900-5909 (2002)). Sections were washed in Tris-buffered saline (TBS) and secondary antibody was added and incubated for 1 hour at room temperature. After washing, the sections were incubated as instructed in the Vector ABC Elite kit (Vector Laboratories) and stained with […] (DAB). The reactions were stopped in water and cover-slipped after treatment with xylene. The amyloid area in each section was determined with a computer-assisted image analysis system, consisting of a Power Macintosh computer equipped with a Quick Capture frame grabber card, Hitachi CCD camera mounted on an Olympus microscope and camera stand. NIH Image Analysis Software, v. 1.55 was used. The images were captured and the total area of amyloid was determined over the ten sections. A single operator blinded to treatment status performed all measurements. Summing the amyloid volumes of the sections and dividing by the total number of sections was done to calculate the amyloid volume.
For quantitative analysis, an enzyme-linked immunosorbent assay (ELISA) was used to measure the levels of human total Aβ, Aβtotal and Aβ1-42 in the brains of APP transgenic mice (Biosource International, Camarillo, Calif.). Aβtotal and Aβ1-42 were extracted from mouse brains by guanidine hydrochloride and quantified as described by the manufacturer. […]

[2] = tested on: diabetic rat model of restenosis; assay: Diabetic rat model of restenosis (balloon injury of left common carotid artery); type: in vivo, Zucker diabetic rats; conditions: 4 days after injury; dose-responsive; FIG. 13B
Procedure: In these experiments, balloon injury of left common carotid artery was performed in Zucker diabetic and nondiabetic rats using standard procedure. […] A maintenance dose was delivered every other day until day 7 after injury (i.e., at day 1, 3, 5 and 7 after injury). The maintenance dose was high=1 mg/animal for one group, or low=0.3 mg/animal for the second group. To measure vascular smooth muscle cell (VSMC) proliferation, animals were sacrificed at 4 days and 21 days after injury. For the measurement of cell proliferation, 4 day animals received intraperitoneal injection of bromodeoxyuridine (BrDdU) 50 mg/kg at 18, 12, and 2 hours before euthanasia. After sacrifice, the entire left and right carotid arteries were harvested. Specimens were stored in Histochoice for at least 24 hours before embedding. […] A fluorescence labeled goat anti-mouse secondary antibody was applied. The number of BrdU-positive nuclei per section were counted by two observers blinded to the treatment regimens.
The remaining rats were sacrificed at 21 days for morphometric analysis. Morphometric analyses were performed by an observer blinded to the study groups, using computerized digital microscopic planimetry software Image-Pro Plus on serial sections, ([…]) carotid arteries stained by Van Gieson staining All data were expressed as mean±SD. […]

[3] = tested on: S100b/RAGE-induced production of TNF-α in THP-1 cells; assay: S100b/RAGE-induced production of TNF-α in THP-1 cells; type: cell-based; conditions: FIG. 10
Procedure: THP-1 myeloid cells may be cultured in RPMI-1640 media supplemented with 10% FBS and induced to secrete TNF-α via stimulation of RAGE with S100b. When such stimulation occurs in the presence of a RAGE fusion protein, induction of TNF-α by S100b binding to RAGE may be inhibited.
Previous work has shown that the myeloid THP-1 cells may secrete TNF-α in response to RAGE ligands. In this assay, THP-1 cells were cultured in RPMI-1640 media supplemented with 10% FBS using a protocol provided by ATCC. […] The amount of TNF-α secreted by the THP-1 cells was measured 24 hours after the addition of the proteins to the cell culture using a commercially available ELISA kit for TNF-α (R&D Systems, Minneapolis, Minn.).

B1: TTP-4000: four domain RAGE fusion protein (SEQ ID NO: 32): human RAGE amino acids 1-251 linked to CH2 and CH3 domains of human IgG (protein)
chain: MAAGTAVGAWALVLSLWGAVVGAQNITARIGEPLVLKCKGAPKKPPQRLEWKLNTGRTEAWKVLSPQGGGPWDSVARVLPNGSLFLPAVGIQDEGIFRCQAMNRNGKETKSNYRVRVYQIPGKPEIVDSASELTAGVPNKVGTCVSEGSYPAGTLSWHLDGKPLVPNEKGVSVKEQTRRHPETGLFTLQSELMVTPARGGDPRPTFSCSFSPGLPRHRALRTAPIQPRVWEPVPLEEVQLVVEPEGGAVAPPSVFLFPPKPKDTLMISRTPEVTCVVVDVSHEDPEVKFNWYVDGVEVHNAKTKPREEQYNSTYRVVSVLTVLHQDWLNGKEYKCKVSNKALPAPIEKTISKAKGQPREPQVYTLPPSRDELTKNQVSLTCLVKGFYPSDIAVEWESNGQPENNYKTTPPVLDSDGSFFLYSKLTVDKSRWQQGNVFSCSVMHEALHNHYTQKSLSLSPGK
TNF generated (Fc receptor): less than 2 ng/well | inflammatory cytokines IL-1 and TNF-α ([1]; data not shown): reduce | Aβ plaques in the brain ([1]; treated for 3 months, versus vehicle and human IgG1, FIG. 14A): fewer Aβ plaques | cognitive dysfunction (Morris water maze) ([1]; treated for 3 months, versus vehicle and human IgG1, FIG. 14B): less cognitive dysfunction | vascular smooth muscle cell proliferation (BrdU-positive nuclei) [2]: significantly reduced | reduction of induction of TNF-α by S100b ([3]; 10 μg protein, S100b 0.1 mg/ml FAC, 24 hours): ~70% | blocking S100b induction of TNF-α compared with sRAGE ([3]; 10 μg): at least as effective in blocking S100b induction of TNF-α as is sRAGE
